In the DeepSol protein solubility set:

Assay: soluble on expression in E. coli; label from the status in PepcDB or PDB records

| Sequence | soluble on expression in E. coli |
| --- | --- |
| GTDQYTLLANRVQNAVEARQSATEAERRRHRLEQILKTVPSCVVQLDRDGQFVFANQRAIDVLGLSQSELKDRLYNDPEWEIRDLDGHPIPDAELPFRQVLETGQPLSDARHTIHWPDGTEKVLSVNGAPLFDDD | not soluble |
| GTGAESTAERSARFERDALEFLDQMYSAALRMTRNPADAEDLVQETYAKAYASFHQFREGTNLKAWLYRILTNTFINSYRKKQREPQ | soluble |
| GTTKISVPVPPPDANFPPSAAPVFYNPEMELNRDINVAATAAFVERLLSKKDILREEIRYVDAFSASGIRGLRIAGEVGIHSTMNDWSHEAFELIKENIKINGLEEKAQATRRNANVLLHEQRFHIVDVDPFGTPSPYLDAAASSAYSMLSVTATDTAPLCGAHLNSGIRKYASVPLNTEYHSEMGLRVLLGACARELAKHEKGMLPLLSHVTRHYVRTYLEVLPGSRKADKTLKSMGFVAHCPRCGFRKPVYGLAVHIEKECPECGGLTKIAGPLWLGPYREPEFCNEVISELEAHPLNTKEKVRKIITFCRDELDIPMFYDQHVICKELGASATGIESLIEALRAGGFEASRTHFTGTSFKTDAPIAEIKKIILALSG | not soluble |
| GVNPRGLGPLQIWQTDFTLEPRMAPRSWLAVTVDTASSAIVVTQHGRVTSVAVQHHWATAIAVLGRPKAIKTDNGSCFTSKSTREWLARWGIAHTTGIPGNSQGQAMVERANRLLKDRIRVLAEGDGFMKRIPTSKQGELLAKAMYALNHKERGENTKTPIQKHWRPTVLTEGPPVKIRIETGEWEKGWNVLVWGRGYAAVKNRDTDKVIWVPSRKVKPDITQKDEVTKKDEASPLFA | soluble |
| GVSIRSMKNFYDWIKEFVRDQGEFIAQQSGWLELERSSYAKLIAQTISHVLNGGSLLVSADSSRHWFLNYILSNLNPKDLKERPLLSVIDFNASSFYPKNDANLSLATIEMTYQNPMFWHVGKIENEGLKTILLSKIPSFLWLFEELKEDCLLLKEHDSLLDYKLLQLFKLFENALFSVLYNKVTL | soluble |
| HGIQLLGYARKILRFNDEACSSLMFSNLQGVLTIGASDESADTILPFLLNRVSSVYPKLALDVRVKRNAYMAEMLESQEVDLMVTTHRPSAFKALNLRTSPTHWYCAAEYILQKGEPIPLVLLDDPSPFRDMVLATLNKADIPWRLAYVASTLPAVRAAVKAGLGVTARPVEMMSPDLRVLSGVDGLPPLPDTEYLLCYDPSSNNELAQVIYQAMESYHNPWQYSPMSAPEGDDSLLIERDIE | soluble |
| HHHGIRMTRISREMMKELLSVYFIMGSNNTKADPVTVVQKALKGGATLYQFREKGGDALTGEARIKFAEKAQAACREAGVPFIVNDDVELALNLKADGIHIGQEDANAKEVRAAIGDMILGVAAHTMSEVKQAEEDGADYVGLGPIYPTETKKDTRAVQGVSLIEAVRRQGISIPIVGIGGITIDNAAPVIQAGADGVSMISAISQAEDPESAARKFREEIQTYKTGR | soluble |
| HHHHHHAIAENLYFQSGRYRIRVATGAWLFSGSYNRVQLWLVGTRGEAELELQLRPARGEEEEFDHDVAEDLGLLQFVRLRKHHWLVDDAWFCDRITVQGPGACAEVAFPCYRWVQGEDILSLPEGTARLPGDNALDMFQKHREKELKDRQQIYCWATWKEGLPLTIAADRKDDLPPNMRFHEEKRLDFEWTLKAGALEMALKRVYTLLSSWNCLEDFDQIFWGQKSALAEKVRQCWQDDELFSYQFLNGANPMLLRRSTSLPSRLVLPSGMEELQAQLEKELQNGSLFEADFILLDGIPANVIRGEKQYLAAPLVMLKMEPNGKLQPMVIQIQPPSPSSPTPTLFLPSDPPLAWLLAKSWVRNSDFQLHEIQYHLLNTHLVAEVIAVATMRCLPGLHPIFKFLIPHIRYTMEINTRARTQLISDGGIFDKAVSTGGGGHVQLLRRAAAQLTYCSLCPPDDLADRGLLGLPGALYAHDALRLWEIIARYVEGIVHLFYQRDDIVKGDPELQAWCREITEVGLCQAQDRGFPVSFQSQSQLCHFLTMCVFTCTAQHAAINQGQLDWYAWVPNAPCTMRMPPPTTKEDVTMATVMGSLPDVRQACLQMAISWHLSRRQPDMVPLGHHKEKYFSGPKPKAVLNQFRTDLEKLEKEITARNEQLDWPYEYLKPSCIENSVTI | soluble |
| HHHHHHGSGAVKLSVSYRNGTLFIMVMHIKDLVTEDGADPNPYVKTYLLPDTHKTSKRKTKISRKTRNPTFNEMLVYSGYSKETLRQRELQLSVLSAESLRENFFLGGITLPLKDFNLSKETVKWYQLTAATYL | soluble |
| HHHHHHYMEQEEDWDRDLLLDPAWEKQQRKTFTAWCNSHLRKAGTQIENIEEDFRNGLKLMLLLEVISGERLPRPDKGKMRFHKIANVNKALDFIASKGVKLVSIGAEEIVDGNLKMTLGMIWTIILRFAIQDISVEETSAKEGLLLWCQRKTAPYRNVNVQNFHTSWKDGLALCALIHRHRPDLIDYAKLRKDDPIGNLNTAFEVAEKYLDIPKMLDAEDIVNTPKPDEKAIMTYVSCFYHAFAGAEQAETAA | soluble |
| HMAQVFEECVSFINGLPRTINLPNELKLDLYKYYKQSTIGNCNIKEPSAHKYIDRKKYEAWKSVENLNREDAQKRYVDIVSEIFPYWQD | soluble |
| HMSVILDTKGEPVSNAADAYYLVPVSHGEGGLALAKVGNEAEPKAVVLDPHHRPGLTVRFETPLAIAIITESFFLNIKFVPSSSDSEVWDVSKQYPIGLAVKVTDTKSFVGPFRVEKEGEGYKIVYYPDRGQTGLDIGLVHRNDKYYLAATEGEPFVFKIRKATYE | soluble |
| HNGWTWEASLNLSANRNKLTELASGSKDDKANNWFVGHPIDCIYDYEKVGLWNSDDPDFQYLDILEPGGNEGMIKVKYTGDRDASGKPTRAIGPEDRQIISLEPKFQGGFSTRVAYKGFDLNVITAFRCGGKLISTLHHSNGYLNMLTGRRGQVDVDYWTPENKGAKYPKPGGIQSGDNPKYGSTLGYFDSSYWKVRNITLGYNFEKQAWLTRMGIQSLRAYLSVQNPFIICSPFHKETGLDPETNSYGNENVAVTEGIQKRFLTVGTNSPSTRNYLFGINLTF | not soluble |
| HPPMPDYTRSLESTLSFWASWVEELPHQRLYDAEVRRSMLVLRALTDLQTGGIVAAPTTSLPEDFGGIRNWDYRYVWLRDSALTIEALVEYGFSQAALQWRTWLLRAIAGDPENLRIMYGLGGERHLPERELQHLRGYENSVPVRVGNGAAEQYQADVVGEVMVALETIRRAGCLEDEFSWGMQKAILDFQEANFDRKDQGIWEMRSEPQYFTHGRAMMWAGFDRGIKAIEEFNLDGPIERWRELRAKLREEIMTNGFNEEIQSFTQCYDNTQVDASLLQLAQIGFIGFDDPKMLSTVARIEQELLDAHGFLHRYHTDGSDGLAGDEYPFLICSFWLVEQYASSNRLDEAKEKMNRILAVQSPLGLLAEEYSTHHGRLAGNYPQAFSHIGLISAARAINFEEARNR | not soluble |
| HQQQRSVMTEEYKVPDGMVGFIIGRGGEQISRIQQESGCKIQIAPDSGGLPERSCMLTGTPESVQSAKRLLDQIVEKGR | soluble |
| HVKLEQLGIPRQVLKYDDFLKSTQKSPATAPKPMPPRPPLPNQQFGVSLQHLQEKNPEQEPIPIVLRETVAYLQAHALTTEGIFRRSANTQVVREVQQKYNMGLPVDFDQYNELHLPAVILKTFLRELPEPLLTFDLYPHVVGFLNIDESQRVPATLQVLQTLPEENYQVLRFLTAFLVQISAHSDQNKMTNTNLAVVFGPNLLWAKDAAITLKAINPINTFTKFLLDHQGELFPSPDPSGL | soluble |
| IDFRTNKSKDAVIVVELASPAAIVDVKRVQEGLSIDLMNTSVKDEQLYLLDVKDFATVVESVEVFRDTSTTRLVAYIDEEYTHDYRLTGRYLEITVSKLKPNEKV | not soluble |
| IDGDSITNKQIKKFWRQKQIIEEDHLYSAIKAAARVRARNLSDEDYKRFEESLDMEDLETEDHQGLKDWWTKSKYAYLNQPALGSADSLKRKRFSTYTPNCFSFKPCNPLYATSLNVF | not soluble |
| IDKAIRDGNVLGFRTEYYKTLSEKDDIDDETSSTGIDKKEALENPIRISEIVDFILKNYNRLTKRNEEFFEHNKIANINEVITSRNKLSENKVLTTLNGFNSILACSSINAAKIYYSEFKKQQQKFPQEEKLKIGLIYSYLPSEQ | not soluble |
